The source of these data is patent publication US20190338009A1 (ZEALAND PHARMA A S, published 2019).

Square brackets hold non-standard residues; d marks the D form. Aib = CC(C)(N)C(=O)O

First the molecules themselves.
T1: human GLP-2 receptor (hGLP2-R) (human, UniProt O95838 1-553)
T1 sequence (looked up): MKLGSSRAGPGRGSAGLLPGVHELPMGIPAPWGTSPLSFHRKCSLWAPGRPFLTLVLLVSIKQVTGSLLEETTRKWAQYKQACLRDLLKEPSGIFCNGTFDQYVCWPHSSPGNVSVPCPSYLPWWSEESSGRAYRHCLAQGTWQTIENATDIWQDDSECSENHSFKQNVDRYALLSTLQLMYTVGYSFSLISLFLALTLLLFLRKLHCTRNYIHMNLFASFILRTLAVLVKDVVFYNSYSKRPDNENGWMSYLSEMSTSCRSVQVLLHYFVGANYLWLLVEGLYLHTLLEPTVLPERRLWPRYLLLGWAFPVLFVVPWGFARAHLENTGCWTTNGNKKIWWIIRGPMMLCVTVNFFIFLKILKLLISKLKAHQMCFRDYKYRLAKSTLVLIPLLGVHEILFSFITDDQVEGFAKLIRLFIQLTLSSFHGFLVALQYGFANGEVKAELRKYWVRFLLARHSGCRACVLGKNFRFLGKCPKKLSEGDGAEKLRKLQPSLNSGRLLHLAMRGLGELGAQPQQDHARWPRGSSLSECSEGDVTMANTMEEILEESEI

B1: Compound 27 (peptide)
peptide: H-H[Aib]EGTFTSELSTILDEQAARDFIAWLHAQKITD-OH
SMILES: CC[C@H](C)[C@H](NC(=O)[C@H](Cc1ccccc1)NC(=O)[C@H](CC(=O)O)NC(=O)[C@H](CCCNC(=N)N)NC(=O)[C@H](C)NC(=O)[C@H](C)NC(=O)[C@H](CCC(N)=O)NC(=O)[C@H](CCC(=O)O)NC(=O)[C@H](CC(=O)O)NC(=O)[C@H](CC(C)C)NC(=O)[C@@H](NC(=O)[C@@H](NC(=O)[C@H](CO)NC(=O)[C@H](CC(C)C)NC(=O)[C@H](CCC(=O)O)NC(=O)[C@H](CO)NC(=O)[C@@H](NC(=O)[C@H](Cc1ccccc1)NC(=O)[C@@H](NC(=O)CNC(=O)[C@H](CCC(=O)O)NC(=O)C(C)(C)NC(=O)[C@@H](N)Cc1c[nH]cn1)[C@@H](C)O)[C@@H](C)O)[C@@H](C)O)[C@@H](C)CC)C(=O)N[C@@H](C)C(=O)N[C@@H](Cc1c[nH]c2ccccc12)C(=O)N[C@@H](CC(C)C)C(=O)N[C@@H](Cc1c[nH]cn1)C(=O)N[C@@H](C)C(=O)N[C@@H](CCC(N)=O)C(=O)N[C@@H](CCCCN)C(=O)N[C@H](C(=O)N[C@H](C(=O)N[C@@H](CC(=O)O)C(=O)O)[C@@H](C)O)[C@@H](C)CC
B2: Compound 28 (peptide)
peptide: H-H[Aib]EGSFTSELATILDEQAARDFIAWLYAHKITD-OH
SMILES: CC[C@H](C)[C@H](NC(=O)[C@H](Cc1ccccc1)NC(=O)[C@H](CC(=O)O)NC(=O)[C@H](CCCNC(=N)N)NC(=O)[C@H](C)NC(=O)[C@H](C)NC(=O)[C@H](CCC(N)=O)NC(=O)[C@H](CCC(=O)O)NC(=O)[C@H](CC(=O)O)NC(=O)[C@H](CC(C)C)NC(=O)[C@@H](NC(=O)[C@@H](NC(=O)[C@H](C)NC(=O)[C@H](CC(C)C)NC(=O)[C@H](CCC(=O)O)NC(=O)[C@H](CO)NC(=O)[C@@H](NC(=O)[C@H](Cc1ccccc1)NC(=O)[C@H](CO)NC(=O)CNC(=O)[C@H](CCC(=O)O)NC(=O)C(C)(C)NC(=O)[C@@H](N)Cc1c[nH]cn1)[C@@H](C)O)[C@@H](C)O)[C@@H](C)CC)C(=O)N[C@@H](C)C(=O)N[C@@H](Cc1c[nH]c2ccccc12)C(=O)N[C@@H](CC(C)C)C(=O)N[C@@H](Cc1ccc(O)cc1)C(=O)N[C@@H](C)C(=O)N[C@@H](Cc1c[nH]cn1)C(=O)N[C@@H](CCCCN)C(=O)N[C@H](C(=O)N[C@H](C(=O)N[C@@H](CC(=O)O)C(=O)O)[C@@H](C)O)[C@@H](C)CC
B3: Compound 26 (peptide)
peptide: H-H[Aib]EGTFTSELATILDEQAARDFIAWLQAQKITD-OH
SMILES: CC[C@H](C)[C@H](NC(=O)[C@H](Cc1ccccc1)NC(=O)[C@H](CC(=O)O)NC(=O)[C@H](CCCNC(=N)N)NC(=O)[C@H](C)NC(=O)[C@H](C)NC(=O)[C@H](CCC(N)=O)NC(=O)[C@H](CCC(=O)O)NC(=O)[C@H](CC(=O)O)NC(=O)[C@H](CC(C)C)NC(=O)[C@@H](NC(=O)[C@@H](NC(=O)[C@H](C)NC(=O)[C@H](CC(C)C)NC(=O)[C@H](CCC(=O)O)NC(=O)[C@H](CO)NC(=O)[C@@H](NC(=O)[C@H](Cc1ccccc1)NC(=O)[C@@H](NC(=O)CNC(=O)[C@H](CCC(=O)O)NC(=O)C(C)(C)NC(=O)[C@@H](N)Cc1c[nH]cn1)[C@@H](C)O)[C@@H](C)O)[C@@H](C)O)[C@@H](C)CC)C(=O)N[C@@H](C)C(=O)N[C@@H](Cc1c[nH]c2ccccc12)C(=O)N[C@@H](CC(C)C)C(=O)N[C@@H](CCC(N)=O)C(=O)N[C@@H](C)C(=O)N[C@@H](CCC(N)=O)C(=O)N[C@@H](CCCCN)C(=O)N[C@H](C(=O)N[C@H](C(=O)N[C@@H](CC(=O)O)C(=O)O)[C@@H](C)O)[C@@H](C)CC

The target of the first test is human glucagon-like peptide 1 receptor (GLP-1R) (human, UniProt P43220 24-463). The test can be described thus: cell-based or functional assay.
Turning to B1, the “EC50 GLP-1 (nM); cAMP AlphaScreen, HEK293 cells expressing human GLP-1R” value (from here on “EC50 GLP-1 (nM); cAMP AlphaScreen”) came to 0.12 nM.

Consider B2, for which the “EC50 GLP-1 (nM); cAMP AlphaScreen” value turned out to be 0.11 nM.

As to B3, the “EC50 GLP-1 (nM); cAMP AlphaScreen” value was 0.013 nM.

A further test deals with T1, human GLP-2 receptor (hGLP2-R). Description: cell-based or functional assay.
In the case of B1, the “EC50 GLP-2 (nM); cAMP AlphaScreen, HEK293 cells expressing human GLP-2R” value (from here on “EC50 GLP-2 (nM); cAMP AlphaScreen”) is 0.37 nM.

For the molecule B2, the “EC50 GLP-2 (nM); cAMP AlphaScreen” value came to 0.024 nM.

For the molecule B3, the “EC50 GLP-2 (nM); cAMP AlphaScreen” value was 0.19 nM.
